Where “and” joins values, the source holds several entries; their conditions need not be identical. Equal entries are not always repeated.
Conditions: Rattus norvegicus; pH 7; 25 °C; Urea; Fluorescence; NaPO4 25 mM; NaCl 75 mM; whole UniProt chain shown

B1: Fatty acid-binding protein, intestinal wild type, P02693 (protein)
chain: MAFDGTWKVDRNENYEKFMEKMGINVVKRKLGAHDNLKLTITQEGNKFTVKESSNFRNIDVVFELGVDFAYSLADGTELTGTWTMEGNKLVGKFKRVDNGKELIAVREISGNELIQTYTYEGVEAKRIFKKE
In the case of B1, the denaturant m value is reported as 0.83 kcal/mol/M and 0.74 kcal/mol/M, the “denaturant midpoint (higher = more stable)” value is reported as 4.61 M and 4.77 M and the unfolding free energy is reported as 16 kJ/mol and 14.8 kJ/mol.

Source: FireProtDB (doi:10.1021/bi052091o)
